{
  "source": "patent US20190031771A1",
  "about": "(University of Pennsylvania, published 2019)",
  "binders": {"B1": {"name": "scFv 1-416 (scFv, V domains shown)", "VH": "QVQLVQSGAEVKKPGSSVRVSCTASGSNFSSHTINWVRQAPGQGLEWMGKVIPVLDISKHAQTFLGRVIITADKSTSTAYLELSSLRSEDTAIYYCAMDSVYGNFDFWGQGTLVTVSS", "VL": "ELVLTQPPSVSVSPGQTARITCSGDAFPKHYAYWYQQKPGQAPVLVIYKDTERPSGIPERFSGSSSGTTATLTISGVQAEDEADYYCQSTDSSDTWVFGAGTKVTVL"}, "B2": {"name": "scFv 3-302 (scFv, V domains shown)", "VH": "QVQLVQSGAEVKRPGSSVKVSCKASGNTFSNYHINWVRQAPGQGLQWMGGIIPILGRTNYAQNFQGRVTITTDESTNTAYMELTSLRSEDTAVYYCAREARDSFDFWGQGTMVTVSS", "VL": "ELVLTQPPSVSVSPGQTASITCSGDKLGHTYTSWYQQKPGQSPVLVIYQDNRRPSGLPERFSGSNSGNTATLTISRVEAGDEADYYCQVWESSSDHLVFGGGTELTVL"}, "B3": {"name": "scFv 3-301 (scFv, V domains shown)", "VH": "EVQLVQSGAEVKKPGSSVKVSCKASGGTFSSYAISWVRQAPGQGLEWMGGIIPILGITNYAQKFQGRVTITADESTGAAYMELSSLASEDTAVYYCARDDTGRDDYFEYWGQGTLVTVSS", "VL": "ELVLTQPPSVSVSPGQTARITCSGDALPKQYAYWYQQKPGQAPVLVIYKDSERPSGIPERFSGSSSGTTVTLTISGVQAEDEADYYCQSADSNGTYKVFGGGTELTVL"}, "B4": {"name": "scFv 1-303 (scFv, V domains shown)", "VH": "QVQLVQSGAEVKKFGSSVKVSCKASGGTFSSYTMSWVRQAPGQGLEWMGSFIPILERANYAQKFQGRVTLTADKSTSTAYMELGSLRSEDTAVYYCARDLGDFGDSWGQGTLVTVSS", "VL": "ELELTQPPSVSVAPGKTARITCGGNNIGSKSVHWYQQKPGQAPVLVVYDDSDRPSGIPERFSGSNSGNTATLTISRVEAGDEADYYCQVWDSSSDHYVFGTGTKVTVL"}, "B5": {"name": "scFv 2-102 (scFv, V domains shown)", "VH": "QVQLVQSGAEVKKPGSSVKVSCRASGGTFSSYTINWVRQAPGQGLEWMGRVVPILGVTNYAQKFQGRVTITADKSTSTAYMELSSLRSEDTAVYYCARDKGYDNNYGAYWGQGTLVTVSS", "VL": "B4 VL with E3V, L4V, K16Q, K30I, S31N, D52A, S93R, H96Y, Y97W, T101G"}, "B6": {"name": "scFv 1-438 (scFv, V domains shown)", "VH": "QVQLVQSGAEVKKPGSSVKVSCKASGGTFSNYDITWVRQAPGQGLEWVGKVIPILDVTNYAQKFQGRVTITADKSTSTAYMELSNLTSEDTAVYFCARFLWGLDVWGQGTMVTVSS", "VL": "B4 VL with E3V, K16Q, Y97K, T101G, K104E, V105L"}, "B7": {"name": "scFv 2-103 (scFv, V domains shown)", "VH": "B5 VH with R23K, T33D, R50S, V51I, V52I, V57I, T58S, K100Q, D103A", "VL": "B4 VL with E3V, K16Q, L45V, Y97W, T101G, K104E, V105L"}, "B8": {"name": "scFv 1-434 (scFv, V domains shown)", "VH": "QVQLVQSGAEVKKPGSSVKVSCKASGGSFSDYTIIWLRQARGHGLEWMGKIVPILGVTTYAQEFQGRITITADRSTSTAYMELSSLRSEDTAVYYCARFLWGLDVWGQGTTVTVSS", "VL": "B4 VL with E3V, K16Q, Y97V, T101G, K104E, V105L"}, "B9": {"name": "scFv 3-405 (scFv, V domains shown)", "VH": "B2 VH", "VL": "ELVLTQPPSVSVAPGKTARITCGENNIGSKSVHWYQQKPGQAPVLVIYYDTDRPSGIPARFSGSNSGNTATLTISRVEAGDEADYYCQVWDSSSDQRVFGGGTELTVL"}, "B10": {"name": "scFv 4-303 (scFv, V domains shown)", "VH": "QVQLVQSGAEVKKPGSSVKVSCKASGGTFSNYGISWVRQAPGQGLEWMGKIIPILGITNYAQKFQGRVTITADKSTSTAYMELSSLRSEDTAVYYCARGGGSYDFFDYWGQGTLVTVSS", "VL": "ELELTQPPSVSVAPGKAARLSCGGEDIGIKSVHWYQQKTGRAPVLVIYNDDDRPSGIPERFAGSNSGNTATLTISRVEAGDEADYYCEVWDSLTDRVVFGGGTKLTVL"}, "B11": {"name": "scFv 2-302 (scFv, V domains shown)", "VH": "EVQLVQSGAEVKKPGSSVKVSCKASGGTFSSYTINWVRQAPGQGLEWMGRIIPILGIENYAQKFQGRVTISADKSTSTAYMELSSLRSDDTAVYYCARDQVFGAYWGPGTLVTVSS", "VL": "ELVLTQPPSVSVAPGQTAIITCGGSNIGTKSVHWYQQKSGQAPVLVVHDDAHRPSGIPERFSGSNSGNTATLTISRVEAGDEADYYCQVWESSSDHWVFGGGTKVTVL"}, "B12": {"name": "scFv 1-403 (scFv, V domains shown)", "VH": "QVQLQESGGGVVQPGRSLRLSCAASGFTFRNYAMHWVRQAPGKGLEWVAVISYDGGKEYYADSVKGRFTISRDNSKNTLYLQMNSLRAEDTAVYYCARDTFSYYDFWRAFDYWGQGTLVTVSS", "VL": "ELVMTQSPSSLSASVGDTVTITCRASQSLRGYLNWYQQKPGEAPKLLIYAASTLRAGVPPRFSGAGYETDFSLTISNLQLEDFATYYCQQSHNVPLTFGGGTKVEIK"}, "B13": {"name": "scFv 3-305 (scFv, V domains shown)", "VH": "B2 VH", "VL": "B4 VL with E3V, Y97W, T101G, K104Q, V105L"}, "B14": {"name": "scFv z1-303 (scFv, V domains shown)", "VH": "QVQLQESGPGLVRPSQTLSLTCAISGDSVSNNNAAWNWIRQSPSRGLEWLGRTFYRSRWYNDYAVSVKSRIIINPDTSKNQFSLDLTSVTPEDTAVYFCAREGQWLPNYFDPWGQGTLVTVSS", "VL": "B4 VL with E3V, K16Q, R76G, A79V, S94R, Y97V, T101G, K104E, V105L"}, "B15": {"name": "scFv 4-307 (scFv, V domains shown)", "VH": "QVQLVQSGAEVKKPGSSVKVSCKASGGTFSTYTINWMRQAPGQGLEWMGRIIPMFGTANYAQKFRGRVTITADESTSTAYMELSSLISEDTAIYYCARSGYSDAFDIWGQGTMVTVSS", "VL": "B9 VL with K16T, E24G, T51S, A59E, R97G, E104Q"}, "B16": {"name": "scFv 1-406 (scFv, V domains shown)", "VH": "B4 VH with T28M, M34I, A40G, T69S, L70F, R87T, Y95F, L100V", "VL": "ELELTQPPSVSVFPGQTARITCSGDTLPKQYGNWYQQKPGQAPVVVIYKDTERPSGIPERFSGSSSGTTATLTISGVQAEDEADYYCQSADSNDWVLFGGGTKLTVL"}},
  "note": "Residue numbers refer to the chain shown, from its start.",
  "data": [
    {"target": "T1, human ADAMTS13 (human, UniProt Q76LX8 75-1427)", "T1 sequence (looked up)": "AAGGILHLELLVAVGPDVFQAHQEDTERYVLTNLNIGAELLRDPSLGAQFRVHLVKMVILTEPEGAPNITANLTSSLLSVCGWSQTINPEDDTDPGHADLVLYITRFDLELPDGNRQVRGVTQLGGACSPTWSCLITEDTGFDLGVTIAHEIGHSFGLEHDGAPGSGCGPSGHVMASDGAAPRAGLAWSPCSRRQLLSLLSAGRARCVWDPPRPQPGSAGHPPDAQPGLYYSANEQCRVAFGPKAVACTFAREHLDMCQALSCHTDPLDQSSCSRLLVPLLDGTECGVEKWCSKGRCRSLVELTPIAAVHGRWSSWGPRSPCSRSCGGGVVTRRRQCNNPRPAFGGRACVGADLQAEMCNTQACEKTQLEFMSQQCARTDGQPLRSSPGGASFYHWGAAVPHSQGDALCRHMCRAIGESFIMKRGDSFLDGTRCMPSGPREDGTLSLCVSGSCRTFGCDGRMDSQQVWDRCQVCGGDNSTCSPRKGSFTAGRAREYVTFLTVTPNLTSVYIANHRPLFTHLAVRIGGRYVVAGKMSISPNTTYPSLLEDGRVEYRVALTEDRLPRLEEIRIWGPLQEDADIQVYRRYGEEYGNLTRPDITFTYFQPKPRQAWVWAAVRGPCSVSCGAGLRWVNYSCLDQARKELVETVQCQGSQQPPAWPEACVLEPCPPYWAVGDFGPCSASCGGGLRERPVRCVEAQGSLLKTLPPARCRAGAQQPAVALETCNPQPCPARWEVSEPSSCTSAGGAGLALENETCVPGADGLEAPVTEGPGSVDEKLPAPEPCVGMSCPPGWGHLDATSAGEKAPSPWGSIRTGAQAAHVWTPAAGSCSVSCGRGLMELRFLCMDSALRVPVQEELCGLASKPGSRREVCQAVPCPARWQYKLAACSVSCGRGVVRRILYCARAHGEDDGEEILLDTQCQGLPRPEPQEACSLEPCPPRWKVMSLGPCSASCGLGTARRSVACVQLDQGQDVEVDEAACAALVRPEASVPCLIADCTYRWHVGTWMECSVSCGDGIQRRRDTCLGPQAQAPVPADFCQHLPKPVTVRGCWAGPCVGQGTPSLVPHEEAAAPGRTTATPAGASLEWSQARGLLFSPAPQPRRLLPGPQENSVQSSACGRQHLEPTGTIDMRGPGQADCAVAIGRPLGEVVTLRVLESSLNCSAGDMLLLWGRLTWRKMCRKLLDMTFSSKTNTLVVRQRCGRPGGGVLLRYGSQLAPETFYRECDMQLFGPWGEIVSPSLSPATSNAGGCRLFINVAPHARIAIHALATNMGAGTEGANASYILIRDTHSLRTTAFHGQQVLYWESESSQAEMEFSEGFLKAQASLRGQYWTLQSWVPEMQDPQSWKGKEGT", "assay": "cell-based or functional assay", "units": {"% ADAMTS13 activity in presence of scFv inhibitor (no rabbit IgG)": "%"}, "values": [
      {"binder": "B1", "% ADAMTS13 activity in presence of scFv inhibitor (no rabbit IgG)": 20}
    ]},
    {"target": "T2, hemagglutinin ectodomain of influenza virus H1/PR/8/34 (influenza virus H1/PR/8/34, UniProt P03452 18-528)", "T2 construct": "extracellular domain; also called HA H1/PR/8/34", "T2 sequence (P03452 18-528)": "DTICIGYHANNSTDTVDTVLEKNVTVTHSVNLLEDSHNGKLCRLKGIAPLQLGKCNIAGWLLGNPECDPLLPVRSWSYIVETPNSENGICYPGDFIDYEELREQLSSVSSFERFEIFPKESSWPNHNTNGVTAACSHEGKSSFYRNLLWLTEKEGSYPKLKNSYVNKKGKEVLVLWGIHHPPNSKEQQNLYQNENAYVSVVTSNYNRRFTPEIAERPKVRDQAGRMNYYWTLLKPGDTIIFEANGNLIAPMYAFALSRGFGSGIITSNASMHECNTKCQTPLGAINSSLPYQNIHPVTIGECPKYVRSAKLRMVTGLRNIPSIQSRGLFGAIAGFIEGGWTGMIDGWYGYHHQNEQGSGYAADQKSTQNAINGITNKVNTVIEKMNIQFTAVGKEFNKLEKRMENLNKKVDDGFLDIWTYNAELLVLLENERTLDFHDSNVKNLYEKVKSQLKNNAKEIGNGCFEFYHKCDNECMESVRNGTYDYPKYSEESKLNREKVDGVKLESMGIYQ", "assay": "immunoassay or flow cytometry", "values": [
      {"binder": "B2", "binding result": "no binding"},
      {"binder": "B1", "binding result": "no binding"},
      {"binder": "B3", "binding result": "no binding"},
      {"binder": "B4", "binding result": "no binding"},
      {"binder": "B5", "binding result": "no binding"},
      {"binder": "B6", "binding result": "no binding"},
      {"binder": "B7", "binding result": "no binding"},
      {"binder": "B8", "binding result": "no binding"},
      {"binder": "B9", "binding result": "no binding"}
    ]},
    {"target": "T1, human ADAMTS13", "assay": "phage ELISA on ADAMTS13-coated plates (positive: >10-fold absorbance above background)", "values": [
      {"binder": "B2", "binding result": "binds"},
      {"binder": "B10", "binding result": "binds"},
      {"binder": "B11", "binding result": "binds"},
      {"binder": "B12", "binding result": "binds"},
      {"binder": "B4", "binding result": "binds"},
      {"binder": "B13", "binding result": "binds"},
      {"binder": "B6", "binding result": "binds"},
      {"binder": "B14", "binding result": "binds"},
      {"binder": "B8", "binding result": "binds"},
      {"binder": "B15", "binding result": "binds"},
      {"binder": "B16", "binding result": "binds"},
      {"binder": "B9", "binding result": "binds"}
    ]}
  ]
}
